This is an account of results in article PMC8383165.

The target in this test is GHSR with a TAG amber codon at F71^1.60 and a single reactive cysteine at position 255^6.27, doubly labelled (UniProt Q92847).
UniProt Q92847, sequence (Q92847 1-70): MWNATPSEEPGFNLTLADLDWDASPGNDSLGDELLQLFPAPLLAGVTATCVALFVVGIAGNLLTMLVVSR

For LEAP2 (1–12) (peptide), the proximity ratio change from the intramolecular FRET between fluorophores in TM1 and TM6 of GHSR, in lipid nanodiscs with D2R, 10 µM peptide worked out at 11.9. With LEAP2 (1–14) (peptide), the proximity ratio change from the intramolecular FRET between fluorophores in TM1 and TM6 of GHSR, in lipid nanodiscs with D2R turned out to be 13.3.
